Results taken from patent US20240150445A1.
Substitutions are numbered along the chain they refer to.

B1: DH270.IA4 (antibody, V domains shown)
VH: QVQLVQSGAEVKKPGASVKVSCKASGYTFTDYYIHWVRQAPGQGLEWMGWINPNTGRTNYAQKFQGRVTMTRDTSISTAYMELSRLRSDDTAVYYCARGGWIGLYYDSSGYPNFDYWGQGTLVTVSS
VL: QSALTQPASVSGSPGQSITISCTGTSYDVGSYNLVSWYQQHPGKAPKLMIYEVSKRPSGVSNRFSGSKSGNTASLTISGLQAEDEADYYCCSYAGSSTVIFGGGTKLTVL
B2: DH270.1 (antibody, V domains shown)
VH: B1 VH with V11M, T69I, R87T, R98T
VL: B1 VL with L48Y, S54N
B3: DH270.6 (antibody, V domains shown)
VH: QVQLVQSGAQMKNPGASVKVSCAPSGYTFTDFYIHWLRQAPGQGLQWMGWMNPQTGRTNTARNFQGRVIMTRDTSIGTAYMELRSLTSDDTAIYYCTTGGWISLYYDSSYYPNFDHWGQGTLLTVSS
VL: TSLLTQPASVSGSPGQSITISCTGTKYDVGSHDLVSWYQQYPGKVPKYMIYEVNKRPSGVSNRFSGSKSGNTASLTISGLRAEDEADYYCCSFGGSATVVCGGGTKVTVL
B4: DH270.2 (antibody, V domains shown)
VH: QVQLVQSGAEMKKPGASVRVSCKASGYTFTDYYIHWVRQAPGQGPEWMGWINPSTGRTNSPQKFQGRVIMTRDTSISTAYMDLNRLTSDDTAMYYCTTGGWIGLYSDTSGYPNFDYWGQGTLVTVSS
VL: B1 VL with S26N, A45V, L48Y, M49I, S54N, T98I, V99I, I100F, L110I
B5: DH270.3 (antibody, V domains shown)
VH: QVQLVQSGAEMKNPGASVKVSCAASGYTFTDFYIHWVRLAPGQGLEWMGWMNPKTGRTNNAQNFQGRVIMTRDTSIGTAYMELRRLTSDDTAVYYCVTGGWISPYYDSSYYPNFDHWGQGTLVTVSS
VL: B3 VL with T1Q, L3A, K26S, S31K, H32F, Y41H, V45A, R56W, N62H, R81Q
B6: DH270.5 (antibody, V domains shown)
VH: B5 VH with M11V, A24P, M48L, N60Q, A61G, R85S, G100A, P104D
VL: LPVLTQPASVSGSPGQSITISCTGTIYDVGKFDLVSWYQHHPGKAPKYLIYEVKKWPSGVSHRFSGSKSGNTASLTISGLQVEDEADYYCCSFGGSAAVVCGGGTKVTVL
B7: DH270.4 (antibody, V domains shown)
VH: B5 VH with Q1E, T28G, Q43H, E46Q, N63D, M70L, V123I
VL: QSALTQPASVSGSPGQSITISCTGTSYDVAKFDLVSWFQQHPGKAPKYMIYEVNKWPSGVSHRFSGSKSGNTASLTISGLQAEDEADYYCCSFGGSATVVCGGGTKVTVL

Target: Man9-V3 glycopeptide
Test: biolayer interferometry, biotinylated peptide on streptavidin sensors

Binder | Kd [nM]
B1 | > 10000
B2 | 331
B3 | 188

Target: Man9-V3 glycopeptide
Test: biolayer interferometry, biotinylated Man9-V3 on streptavidin sensors, antibody in solution, global fit to the bivalent avidity model

Binder | koff [s⁻¹] | kon [M⁻¹ s⁻¹]
B2 | 0.00051 | 1540
B4 | 0.0081 | 1710
B5 | 0.000778 | 4000
B6 | 0.00091 | 3300
B3 | 0.00037 | 1970
B7 | 0.00052 | 1500

Target: Man9-V3 glycopeptide
Test: biolayer interferometry, biotinylated Man9-V3 on streptavidin sensors, antibody in solution; inset curves (100, 50, 25 µg/mL) after subtraction of the palivizumab signal

Binder | Kd [nM]
B1 | > 10000
